Experimental data: US6852509 (dated 2005)
Values belong to the binder of their own block, whether it stands above or below them.

Target: T1, wild-type p53 protein (UniProt P04637 1-393)
T1 construct: also called purified p53
Test: ELISA on plates coated with purified p53
Text: The two IgGs are then visualized using a secondary anti-IgG antibody which is coupled to alkaline phosphatase. The biotinylated serum is visualized using extravidin which is coupled to alkaline phosphatase. The ScFvs are visualized using the anti-myc antibody 9E10 and then using an anti-IgG antibody which is coupled to alkaline phosphatase.

T1 sequence (P04637 whole entry): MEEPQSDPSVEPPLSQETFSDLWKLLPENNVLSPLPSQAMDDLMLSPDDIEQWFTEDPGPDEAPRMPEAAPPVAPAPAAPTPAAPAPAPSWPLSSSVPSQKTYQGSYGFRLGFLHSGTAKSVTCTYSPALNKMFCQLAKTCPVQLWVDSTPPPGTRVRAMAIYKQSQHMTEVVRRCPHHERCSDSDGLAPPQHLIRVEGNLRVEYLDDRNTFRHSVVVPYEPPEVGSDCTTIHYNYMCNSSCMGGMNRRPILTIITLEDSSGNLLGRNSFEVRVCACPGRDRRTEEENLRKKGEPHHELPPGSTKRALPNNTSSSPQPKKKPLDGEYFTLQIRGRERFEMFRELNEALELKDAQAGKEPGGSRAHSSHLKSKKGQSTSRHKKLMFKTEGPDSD

- binding result: binds
B1: ScFv 11D3-myc (scFv)
scFv: QVKLQESGAELVRSGASVNLSCTASGFNIKDYYMHWVKQRPEEGLEWIGYIDPESGETEYAPNFQGKATVTADTSSNTAYLHLSSLTSEDTTVYYCNAVIYYEYDGYALDYWGQGTTVTVSSGGGGSGGGGSGGGGSDIELTQSPSSLAVSAGEKVAMSCKSSQSLFNSRTRKNYLAWYQQKPGQSPKVLIYWASTRESGVPDRFTGSGSGTDFTLTISSVQAEDLAVYYCKQSYNLPTFGGGTKLEIK
notes: Produced from bacterial periplasm; also called 11D3 ScFv; D3M ScFv; not shown: myc tag fused for detection

- binding result: binds
B2: ScFv 421-myc (scFv)
scFv: QVQLQQSGAELVRSGASVKLSCTASGFNIKDYYMHWVKQRPEQGLEWIGWIDPENGDTEYAPKFQGKATMTADTSSNTAYLQLSSLASEDTAVYYCNFYGDALDYWGQGTTVTVSSGGGGSGGGGSGGGGSDVLMTQTPLTLSVTIGQPASISCKSSQSLLDSDGKTYLNWLLQRPGQSPKRLIYLVSKLDSGVPDRFTGSGSGTDFTLKINRVEAEDLGVYYCWQGTHSPLTFGAGTKLEIK
notes: Produced from bacterial periplasm; not shown: myc tag fused for detection
